One data set deals with PrgB246-558 (Enterococcus faecalis, UniProt Q04112). The experiment in a line: isothermal titration calorimetry. The data set is classed as binding. For orientation: Isothermal titration calorimetry measures the heat released or taken up as one component is titrated into another.
The next data set has as its target PrgB188-1233 (Enterococcus faecalis, UniProt Q04112). Nature of the data set: isothermal titration calorimetry. The data set is classed as binding.
The next data set deals with PrgB188-1233 dimer (Enterococcus faecalis (plasmid pCF10), UniProt Q04112 188-1233). Nature of the data set: ITC.
For another data set, the target named is PrgB188-1233 monomer (Enterococcus faecalis (plasmid pCF10), UniProt Q04112 188-1233). The experiment in a line: ITC.
Data set [1] addresses PrgB246-558 adhesin domain (Enterococcus faecalis (plasmid pCF10), UniProt Q04112 246-558). The experiment in a line: ITC.

As for `O=P(O)(O)OCC(O)CO` (centres unmarked) [glycerol phosphate], the Kd is 276 ± 71.2 µM on PrgB246-558 and 309 ± 55.3 µM at PrgB188-1233.

B1: 19-bp dsDNA (dsDNA)
DNA 1: GGGGGCGGGGCGGGCGGCG
DNA 2: CGCCGCCCGCCCCGCCCCC
Consider B1, for which the values for the Kd (with PrgB188-1233 dimer; with PrgB188-1233 monomer; in data set [1]) were 164 ± 42.4 µM, 364 ± 73.8 µM and 46.2 ± 14.5 µM, respectively.

A word on the Kd: it is the equilibrium constant for the complex coming apart. A lower Kd goes with a tighter complex.

The values above are taken from article PMC6158044 (Molecular microbiology, 2018).
